Assay results published in publication PMC4923194, “The Crystal Structure of the C-Terminal Domain of the Salmonella enterica PduO Protein: An Old Fold with a New Heme-Binding Mode” (Frontiers in Microbiology, 2016).

Key:
[1] = target: T1, PduO C-terminal domain (PduOC) (Salmonella enterica, UniProt A0A0F6B395); assay: crystal structure ([…] Å) and ITC; UV/Vis titration; format: binding
T1 construct: C-terminal domain PduOC, 147 residues, His-tag-free; octamer with 4 hemes

[2] = target: PduOC-His18Ala (H18A) mutant (Salmonella enterica subsp. enterica serovar Typhimurium); assay: SEC-MALS; Superdex 200 increase 10/300 GL in 100 mM Tris-HCl pH 8, 150 mM NaCl, with multi-angle static light scattering and refractive index detectors; wild type as PduOC:heme, H18A without heme
[3] = target: the molecule itself; assay: SEC; gel filtration of the PduOC apoprotein (heme extracted); data not shown
[4] = target: the molecule itself; assay: SEC-MALS; Superdex 200 increase 10/300 GL in 100 mM Tris-HCl pH 8, 150 mM NaCl, with multi-angle static light scattering and refractive index detectors; wild type as PduOC:heme, H18A without heme

C=CC1=C(C)C2=Cc3c(C=C)c(C)c4[n]3[Fe][n]3c(c(C)c(CCC(=O)O)c3=CC3=NC(=C4)C(C)=C3CCC(=O)O)=CC1=N2 [heme B]
Kd [1]: 160 nM

PduOC-His18Ala (H18A) mutant (domain or fragment)
stoichiometry N [2]: 2

B1: C-terminal domain of the Salmonella enterica PduO protein (PduOC) (domain or fragment)
chain: KETTPVALSFHDLHQLTRAAVERAQQLQVPVVVSIVDAHGTETVTWRMPDALLVSSELAPKKAWTAVAMKTATHELSDVVQPGAALYGLESHLQGKVVTFGGGYALWRDGILIGGLGISGGSVEQDMDIAQTAIAAINVGTHQ
notes: PduO, ATP:Cob(I)alamin adenosyltransferase of S. enterica subsp. enterica serovar Typhimurium; C-terminal domain (PduOC); the His-tag-free monomer has 147 residues; the N-terminal domain (PduON) has 197 residues; excess heme B added to the lysate for crystallography; Residues left by the pETM11 vector after TEV cleavage are probably counted in the 147 residues (surmise); also called PduOC:heme; …
stoichiometry N [3]: 2
stoichiometry N [4]: 8
